Here are results for 3 molecules from patent publication US8936785 (ESBATECH AN ALCON BIOMEDICAL RESEARCH UNIT, dated 2015).

Changes are numbered by the printed parent chain.

In experiment [1] the target is T1, TNFα (tumour necrosis factor alpha) (UniProt P01375 77-233, limits assumed). The experiment is described as follows: cell-based or functional assay.
Experiment [2] concerns the target T1, TNFα (tumour necrosis factor alpha). The experiment is described as follows: cell-based or functional assay. This is another data set of the same source.

T1 sequence (P01375 77-233 limits assumed): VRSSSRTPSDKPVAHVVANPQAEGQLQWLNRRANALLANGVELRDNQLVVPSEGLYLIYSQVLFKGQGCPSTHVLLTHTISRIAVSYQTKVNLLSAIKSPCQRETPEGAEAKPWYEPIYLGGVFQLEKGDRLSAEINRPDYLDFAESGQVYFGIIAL

B1: ESBA105 (scFv)
scFv: DIVMTQSPSSLSASVGDRVTLTCTASQSVSNDVVWYQQRPGKAPKLLIYSAFNRYTGVPSRFSGRGYGTDFTLTISSLQPEDVAVYYCQQDYNSPRTFGQGTKLEVKRGGGGSGGGGSGGGGSSGGGSQVQLVQSGAEVKKPGASVKVSCTASGYTFTHYGMNWVRQAPGKGLEWMGWINTYTGEPTYADKFKDRFTFSLETSASTVYMELTSLTSDDTAVYYCARERGDAMDYWGQGTLVTVSS
Take B1: the “EC50 (read off the curve), L929 assay, ESBA105 stored 8 weeks at 37° C. (triangles, dashed line)” value in experiment [1] is about 10 ng/mL. Moreover, in experiment [2], the “Relative potency: EC50X/EC50ESBA105, KYM-1 cells” value was determined as 1 ratio EC50X/EC50ESBA105 and the “Relative potency: EC50X/EC50ESBA105, L929 cells” value (“Relative potency … L929 cells” below) stood at 1 ratio EC50X/EC50ESBA105.

B2: ESBA105-QC15.2 (scFv)
scFv: B1 scFv with K171R, F196I
Consider B2, for which, in experiment [2], the “Relative potency: EC50X/EC50ESBA105, KYM-1 cells” value came out at 1.5 ratio EC50X/EC50ESBA105 and the “Relative potency … L929 cells” value amounted to 1.37 ratio EC50X/EC50ESBA105.

B3: ESBA105-H_F68A (scFv)
scFv: B1 scFv with F196A
As to B3, the “Relative potency … L929 cells” value in experiment [2] is 1.14 ratio EC50X/EC50ESBA105.
